Tests used:
[1] = molecular target: T1, JNKK2 (Homo sapiens, UniProt O14733, Q133P/Q94H); assay: GST pull-down, GST-Gadd45β beads with in vitro translated 35S-labeled JNKK2; format: binding
T1 construct: plasmids encoding full-length (FL) human ASK1, MEKK4, JNKK1, and JNKK2; made in house; host or cells: TNT coupled reticulocyte lysate (Promega), in vitro transcription/translation from pBS
T1 sequence (O14733 1-401 Q94H/Q133P limits assumed): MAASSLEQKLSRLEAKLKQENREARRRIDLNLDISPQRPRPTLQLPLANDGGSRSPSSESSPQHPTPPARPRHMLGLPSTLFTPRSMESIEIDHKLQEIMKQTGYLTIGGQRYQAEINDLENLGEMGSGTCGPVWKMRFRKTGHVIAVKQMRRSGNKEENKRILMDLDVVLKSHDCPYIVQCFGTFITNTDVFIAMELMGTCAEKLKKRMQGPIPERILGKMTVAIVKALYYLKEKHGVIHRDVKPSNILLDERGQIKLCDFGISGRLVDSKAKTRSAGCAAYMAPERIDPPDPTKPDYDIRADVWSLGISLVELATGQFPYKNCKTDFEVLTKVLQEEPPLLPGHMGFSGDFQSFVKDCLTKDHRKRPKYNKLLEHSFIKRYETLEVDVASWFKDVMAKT
Procedure: (§1) To confirm the above interactions, in vitro, GST pull-down experiments were performed. pBluescript (pBS) plasmids encoding full-length (FL) human ASK1, MEKK4, JNKK1, and JNKK2, or polypeptides derived from the amino- or carboxy-terminal portions of ASK1 (i.e. N-ASK1, spanning from amino acids 1 to 756, and C-ASK1, spanning from amino acids 648 to 1375) were transcribed and translated in vitro using the TNT coupled retyculocyte lysate system (Promega) in the presence of ^35S-methionine. 5 μl of each translation mix were incubated, in vitro, with sepharose-4B beads that had been coated with either purified glutathione-S-transferase (GST) polypeptides or GST-Gadd45β proteins. The latter proteins contained FL murine Gadd45β directly fused to GST. Binding assays were performed according to standard procedures, and ^35S-labeled proteins that bound to beads, as well as 2 μl of each in vitro translation mix (input), were then resolved by SDS polyacrylamide gel electrophoresis. Asterisks indicate the intact translated products. […] Thus, GST pull-down experiments confirmed the strong interaction between Gadd45β and JNKK2 observed in vivo, as well as the weaker interactions of Gadd45β with other kinases in the JNK pathway. These assays also uncovered a weak association between Gadd45β and JNKK1. […]

[2] = molecular target: T2, JNKK1 (Mus musculus, UniProt P47809); assay: GST pull-down, GST-Gadd45β beads with in vitro translated 35S-labeled JNKK1; format: binding, murine
T2 construct: plasmids encoding full-length (FL) human ASK1, MEKK4, JNKK1, and JNKK2; made in house; host or cells: TNT coupled reticulocyte lysate (Promega), in vitro transcription/translation from pBS
T2 sequence (P47809 2-397): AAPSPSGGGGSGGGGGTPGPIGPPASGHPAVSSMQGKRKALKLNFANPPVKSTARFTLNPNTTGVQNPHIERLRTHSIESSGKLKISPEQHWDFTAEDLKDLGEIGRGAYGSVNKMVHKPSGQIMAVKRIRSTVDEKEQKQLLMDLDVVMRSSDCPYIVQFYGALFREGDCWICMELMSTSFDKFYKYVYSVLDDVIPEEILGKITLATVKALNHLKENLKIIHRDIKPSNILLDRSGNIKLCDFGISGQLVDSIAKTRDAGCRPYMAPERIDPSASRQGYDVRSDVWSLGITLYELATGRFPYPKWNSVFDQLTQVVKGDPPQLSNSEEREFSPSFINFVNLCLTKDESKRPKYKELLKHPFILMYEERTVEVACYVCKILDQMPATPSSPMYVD
Procedure: as §1

B1: GST-Gadd45β: full-length murine Gadd45β directly fused to GST, purified from E. coli (protein)
chain: MTLEELVASDNAVQKMQAVTAAVEQLLVAAQRQDRLTVGVYEAAKLMNVDPDSVVLCLLAIDEEEEDDIALQIHFTLIQSFCCDNDIDIVRVSGMQRLAQLLGEPAETLGTTEARDLHCLLVTNCHTDSWKSQGLVEVASYCEESRGNNQWVPYISLEER
modifications: left off: a dimerising Fc or GST
notes: full-length murine Gadd45β directly fused to GST, purified from E. coli
[1]
  association with FL-JNKK2: strongly associated
[2]
  association with JNKK1: weakly

From patent US7326418B2, “Identification of novel factors that block programmed cell death or apoptosis by targeting JNK” (University of Chicago, priority 2001, dated 2008)
